Laboratory results as given in patent US9359408B2, “Fluorinated protein-based polymeric carriers” (New York University, priority 2007, dated 2016).
“Also recorded” adds a separate entry of the source.

B1: pFF-ECE: Elastin-COMPcc-Elastin triblock protein polymer with phenylalanine residues replaced by p-fluorophenylalanine (SEQ ID NO: 17) (protein)
chain: MRGSHHHHHHGSKPIAASAVPGVGVPGVGVPGFGVPGVGVPGVGVPGVGVPGVGVPGFGVPGVGVPGVGVPGVGVPGVGVPGFGVPGVGVPGVGVPGVGVPGVGVPGFGVPGVGVPGVGVPGVGVPGVGVPGFGVPGVGVPGVGVPLEGSELAATATATATATATAACGDLAPQMLRELQETNAALQDVRELLRQQVKEITFLKNTVMESDASGLQAATATATATATATAVDKPIAASAVPGVGVPGVGVPGFGVPGVGVPGVGVPGVGVPGVGVPGFGVPGVGVPGVGVPGVGVPGVGVPGFGVPGVGVPGVGVPGVGVPGVGVPGFGVPGVGVPGVGVPGVGVPGVGVPGFGVPGVGVPGVGVPLEGSGTGAKLN
modifications: Phe replaced by p-fluorophenylalanine
B2: wt-ECE: non-fluorinated Elastin-COMPcc-Elastin block polymer (SEQ ID NO: 17) (protein)
chain: MRGSHHHHHHGSKPIAASAVPGVGVPGVGVPGFGVPGVGVPGVGVPGVGVPGVGVPGFGVPGVGVPGVGVPGVGVPGVGVPGFGVPGVGVPGVGVPGVGVPGVGVPGFGVPGVGVPGVGVPGVGVPGVGVPGFGVPGVGVPGVGVPLEGSELAATATATATATATAACGDLAPQMLRELQETNAALQDVRELLRQQVKEITFLKNTVMESDASGLQAATATATATATATAVDKPIAASAVPGVGVPGVGVPGFGVPGVGVPGVGVPGVGVPGVGVPGFGVPGVGVPGVGVPGVGVPGVGVPGFGVPGVGVPGVGVPGVGVPGVGVPGFGVPGVGVPGVGVPGVGVPGVGVPGFGVPGVGVPGVGVPLEGSGTGAKLN
B3: wt-CE: non-fluorinated COMPcc-Elastin block polymer (SEQ ID NO: 16) (protein)
chain: MRGSHHHHHHGSACELAATATATATATATAACGDLAPQMLRELQETNAALQDVRELLRQQVKEITFLKNTVMESDASGLQAATATATATATATAVDKPIAASAVPGVGVPGVGVPGFGVPGVGVPGVGVPGVGVPGVGVPGFGVPGVGVPGVGVPGVGVPGVGVPGFGVPGVGVPGVGVPGVGVPGVGVPGFGVPGVGVPGVGVPGVGVPGVGVPGFGVPGVGVPGVGVPLEGSGTGAKL
B4: pFF-CE: COMPcc-Elastin diblock protein polymer with phenylalanine residues replaced by p-fluorophenylalanine (SEQ ID NO: 23) (protein)
chain: MRGSHHHHHHGSACELAATATATATATATAACGDLAPQMLRELQETNAALQDVRELLRQQVKEITFLKNTVMESDASGLQAATATATATATATAVDKPIAASAVPGVGVPGVGVPGFGVPGVGVPGVGVPGVGVPGVGVPGFGVPGVGVPGVGVPGVGVPGVGVPGFGVPGVGVPGVGVPGVGVPGVGVPGFGVPGVGVPGVGVPGVGVPGVGVPGFGVPGVGVPGVGVPLEGSGTGAKLN
modifications: Phe replaced by p-fluorophenylalanine
B5: pFF-EC: Elastin-COMPcc diblock protein polymer with phenylalanine residues replaced by p-fluorophenylalanine (SEQ ID NO: 15) (protein)
chain: MRGSHHHHHHGSKPIAASAVPGVGVPGVGVPGFGVPGVGVPGVGVPGVGVPGVGVPGFGVPGVGVPGVGVPGVGVPGVGVPGFGVPGVGVPGVGVPGVGVPGVGVPGFGVPGVGVPGVGVPGVGVPGVGVPGFGVPGVGVPGVGVPLEGSELAATATATATATATAACGDLAPQMLRELQETNAALQDVRELLRQQVKEITFLKNTVMESDASGLQAATATATATATATAVDLQPS
modifications: Phe replaced by p-fluorophenylalanine
B6: wt-EC: non-fluorinated Elastin-COMPcc block polymer (SEQ ID NO: 15) (protein)
chain: MRGSHHHHHHGSKPIAASAVPGVGVPGVGVPGFGVPGVGVPGVGVPGVGVPGVGVPGFGVPGVGVPGVGVPGVGVPGVGVPGFGVPGVGVPGVGVPGVGVPGVGVPGFGVPGVGVPGVGVPGVGVPGVGVPGFGVPGVGVPGVGVPLEGSELAATATATATATATAACGDLAPQMLRELQETNAALQDVRELLRQQVKEITFLKNTVMESDASGLQAATATATATATATAVDLQPS

Legend:
[1] = Microrheology of protein solutions (bead tracking, G′/G″); format: physicochemical
Method: Microrheology. To assess the mechanical properties of all proteins, microrheology was performed using an inverted Leica DM-138 IRB microscope with a 20× objective lens at 22 and 42° C., maintained by a Lincum temperature-controlled cell. […] A total of 2 μL of 2 wt % fluorescent-amidated polystyrene beads (1.0 μm) was added to 10 μL of protein solution. Deionized water, 2 wt % beads, was measured as a control. Brownian motion of the beads was observed by Peltier-cooled video camera (QiCam) and digitally recorded. Mean square displacement (MSD) measurements of the beads were determined by IDL software (Research Systems, Inc.). Using the comprehensive Stokes-Einstein equation, the elastic modulus (G′) and viscous modulus (G″) were determined as a function of angular frequency (ω).
Mechanical Properties. Bulk rheological properties of the protein polymers were evaluated by microrheology (FIG. 4).
Upon fluorination, more depressed concentration-dependent percolation points for the protein polymers were observed. […] Two types of modifications to the rheological behavior are observed from EC and CE sets of constructs.

[2] = Inverse temperature transition (Tt) by UV/vis absorbance at 350 nm; format: physicochemical; conditions: 4 μM protein in 10 mM phosphate buffer, pH 8.0, heated 10 to 65° C.
Method: UV/Vis Spectroscopy. UV/vis spectroscopy was performed on a Cary 100 UV/vis spectrometer (Agilent) to determine the inverse temperature transition (Tt) of 4 μM protein in 10 mM phosphate buffer, pH 8.0. The absorbance at 350 nm was measured as each protein sample was heated from 10 to 65° C., at a heating rate of 0.5° C./min.
Temperature-Dependent Supramolecular Assembly. The effect of temperature on the supramolecular assembly of the proteins was examined via absorption at 350 nm. The inverse temperature transition (Tt) was determined via temperature-dependent absorption (FIG. 3, insets). The Tt values for all fluorinated block polymers were different, affirming the significance of block orientation and number. […] In comparison to the wt proteins, fluorination appeared to depress the Tt of CE protein from 36 to 28° C.

Molecule	rheological character ([1]; 1.25 mg mL^−1, 42° C.)	inverse temperature transition (Tt) [2]	rheological character ([1]; up to 10 mg mL^−1)	rheological character ([1]; 1.25 mg mL^−1, 22° C.)	rheological character ([1]; 2.5 mg mL^−1, 22° C.)	rheological character ([1]; 2.5 mg mL^−1, 42° C.)	rheological character ([1]; 10 mg mL^−1)	rheological character ([1]; concentrations below 2.5 mg mL^−1)
B1	elastic network formation	32 °C						
B2	completely viscous		viscoelastic					
B3		36 °C	predominantly viscous	viscous/viscoelastic	viscous/viscoelastic	viscoelastic character		
B4		28 °C		viscous/viscoelastic	viscous/viscoelastic	elastic behavior; also recorded: dominant elastic modulus		
B5		25 °C		viscoelastic behavior	viscoelastic behavior	more elastic character		
B6				predominantly viscous		more elastic character	elastic network	predominantly viscous
